Drawing on PMC8809517, “Cofactor-independent RNA editing by a synthetic S-type PPR protein”, this text covers Kd for four molecules.

Residue numbers refer to the chain shown, from its start.

What all share (experiment): high-throughput RNA pulldown from lysate on Ni-NTA beads; HRP: 50 mM Tris pH 8, 150 mM NaCl, 1 mM beta-mercaptoethanol, 50 ug/ml BSA, 3 ug/ml yeast RNA, 0.5% heparin; ITC and FP: Tris pH 8, 200 mM KCl, 5% glycerol; MST: 50 mM Tris pH 8, 200 mM NaCl, 1 mM DTT, BSA, heparin, 0.05% Tween 20
Holding throughout (conditions): tags: N-terminal His-eGFP

The target in data set [1] is T1, GFP-9S library array, motif 4 ND N98S;D124T (synthetic construct, N98S;D124T).
T1 chain: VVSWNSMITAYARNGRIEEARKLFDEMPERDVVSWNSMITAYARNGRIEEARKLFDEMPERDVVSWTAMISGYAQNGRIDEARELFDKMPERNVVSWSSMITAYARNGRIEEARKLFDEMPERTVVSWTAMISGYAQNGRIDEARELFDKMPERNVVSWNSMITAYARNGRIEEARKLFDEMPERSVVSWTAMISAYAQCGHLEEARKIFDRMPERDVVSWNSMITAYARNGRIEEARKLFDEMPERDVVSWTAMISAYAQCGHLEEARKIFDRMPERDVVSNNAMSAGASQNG

For data set [2], the target named is T2, GFP-9S library array, motif 4 ND N98I;D124E (synthetic construct, N98I;D124E).
T2 chain: T1 chain with S98I, T124E

The target of data set [3] is T3, GFP-9S library array, motif 4 ND D124W (synthetic construct, D124W).
T3 chain: T1 chain with S98N, T124W

Data set [4] deals with T4, GFP-9S library array, motif 4 ND N98V;D124T (synthetic construct, N98V;D124T).
T4 chain: T1 chain with S98V

The target in data set [5] is T5, GFP-9S library array, motif 4 ND N98I;D124K (synthetic construct, N98I;D124K).
T5 chain: T1 chain with S98I, T124K

As for AUUAGACGUGA (ssRNA) [Cy5-rpoA-G], the Kd (in general, the constant that tells how readily two partners part at equilibrium) in data set [1] (label: 5' Cy5) is 0.291 µM; in data set [2] (label: 5' Cy5), 0.0786 µM; in data set [3] (label: 5' Cy5), 0.0894 µM; in data set [4] (label: 5' Cy5), 0.0867 µM; in data set [5] (label: 5' Cy5) it was 0.121 µM.

On to AUUAUACGUGA (ssRNA) [IR-rpoA-U], for which the Kd in data set [1] (label: 5' IRDye 800CW) amounted to 0.108 µM; in data set [2] (label: 5' IRDye 800CW) it was 0.0431 µM; in data set [3] (label: 5' IRDye 800CW), 0.21 µM; in data set [4] (label: 5' IRDye 800CW), 0.0293 µM; in data set [5] (label: 5' IRDye 800CW) it was 0.183 µM.

As for AUUAAACGUGA (ssRNA) [IR-rpoA-A], the Kd came out at 0.0723 µM in data set [1] (label: 5' IRDye 800CW); 0.0486 µM in data set [2] (label: 5' IRDye 800CW); 0.164 µM in data set [3] (label: 5' IRDye 800CW); 0.0363 µM in data set [4] (label: 5' IRDye 800CW); 0.197 µM in data set [5] (label: 5' IRDye 800CW).

Turning to AUUACACGUGA (ssRNA) [Cy5-rpoA], the Kd in data set [1] (label: 5' Cy5) is 0.187 µM; in data set [2] (label: 5' Cy5), 0.0972 µM; in data set [3] (label: 5' Cy5) it was 0.0787 µM; in data set [4] (label: 5' Cy5), 0.0893 µM; in data set [5] (label: 5' Cy5), 0.131 µM.
